Test results from patent US20110064726A1 (published 2011).

What was measured:
[1] = target: T1, human IgE (full length human immunoglobulin E) (human, UniProt P01854 1-546); assay: serum free IgE depletion ELISA; DIN 0591, initial free IgE 152 ng/mL
[2] = target: T1, human IgE (full length human …); assay: serum free IgE depletion ELISA; DIN 0451 experiment 2, initial free IgE 534 ng/mL
human IgA = target: T2, human IgA (human); assay: ELISA, immunoglobulin coated at 4 µg/mL, anti-human IgG2 detection
T2 construct: bought preparation coated on the ELISA plate
Procedure: (§1) Wells were washed 3× with 150 μL wash buffer (0.05% Tween-20 (Sigma, Cat. No. P7949)/PBS) then blocked with 150 μL/well blocking buffer (2.5% BSA (Sigma, Cat. No. A7030)/PBS) for 2 hours at room temperature. Wells were washed 3× with 150 μL wash buffer/well. […] Antibodies were diluted in diluent buffer (PBS/1% BSA/0.05% Tween-20) and this was added to blank control wells (duplicate wells for each secondary antibody used). Antibodies were incubated for 2 hours at room temperature. Wells were washed 3× with 150 μL wash buffer/well. Binding of control antibodies to immunoglobulin was detected with anti-mouse IgG-HRP conjugate (Sigma, Cat. No. A4416) diluted 1:8000 in diluent buffer. 50 μL/well was added to control antibody and blank wells. Wells were incubated for 1 hour at room temperature, then washed 3× with 150 μL wash buffer/well. 50 μl OPD (Dako, Cat. No. […] Wells were incubated for 1 hour at room temperature then washed 3× with 150 μL wash buffer/well. Streptavidin-HRP (Amersham Bioscience, Cat. No. RPN 1231) diluted 1:2000 in diluent buffer was added to all wells and incubated for 45 minutes at room temperature. Wells were washed (3×150 μL wash buffer).

[3] = target: T1, human IgE (full length human …); assay: as above
Procedure: as §1

human IgG1 = target: T3, human IgG1 (human, UniProt P01857-1 1-330 = IgG part); assay: as above
T3 construct: bought preparation coated on the ELISA plate; not shown: bought immunoglobulin, light chain not described
Procedure: as §1

human IgG3 = target: T4, human IgG3 (human, UniProt P01860-1 1-377); assay: as above
T4 construct: bought preparation coated on the ELISA plate; not shown: bought immunoglobulin, light chain not described
Procedure: as §1

[4] = target: T1, human IgE (full length human …); assay: serum free IgE depletion ELISA; DIN 0623 experiment 2, initial free IgE 133 ng/mL
[5] = target: T1, human IgE (full length human …); assay: serum free IgE depletion ELISA; DIN 0347, initial free IgE 221 ng/mL
cynomolgus monkey IgE [6] = target: T5, cynomolgus monkey IgE (cynomolgus monkey); assay: capture ELISA, antibody coated; Test 2, Cyno 4 serum
T5 construct: serum was used as the source of IgE; also called cynomolgus IgE; cyno IgE
Procedure: (§2) Wells were washed once with 150 μL/well wash buffer (0.05% Tween-20, Sigma, Cat. No. P7949/TBS) then blocked with 150 μL/well 1% BSA (Sigma, Cat. No. A7030) in TBS for 2 hours at room temperature. Wells were washed twice with 150 μL wash buffer. 50 μL human (in-house donors) or cynomolgus serum (Harlan Sera-Lab Ltd, Loughborough) was added from neat to at least 1:16 dilution in 1% BSA/0.05% Tween-20/TBS diluent buffer. […] Wells were incubated for 2 hours at 25° C. before washing (3×150 μLwash buffer). […] Wells were incubated for 1 hour at 25° C. then washed (3×150 μL wash buffer). Streptavidin-HRP (Amersham Bioscience, Cat. No. RPN 1231) diluted 1:1000 in diluent buffer was added to all wells and incubated for 45 minutes at room temperature. Wells were washed (3×150 μL wash buffer). […] OPD (Dako, Cat. No. S2045) was added to all wells and the color allowed to develop for 10 minutes before stopping the reaction with 50 μl 0.6M H₂SO₄ and the absorbance measured at 490 nm.

[7] = target: T1, human IgE (full length human …); assay: serum free IgE depletion ELISA; DIN 0649, initial free IgE 93 ng/mL
cynomolgus monkey IgE [8] = target: T5, cynomolgus monkey IgE; assay: capture ELISA, antibody coated; Test 2, Cyno 6 serum
Procedure: as §2

cynomolgus monkey IgE [9] = target: T5, cynomolgus monkey IgE; assay: capture ELISA, antibody coated; Test 2, Cyno 7 serum
Procedure: as §2

cynomolgus monkey IgE [10] = target: T5, cynomolgus monkey IgE; assay: capture ELISA, antibody coated; Test 2, Cyno 8 serum
Procedure: as §2

[11] = target: T1, human IgE (full length human …); assay: serum free IgE depletion ELISA; DIN 0155, initial free IgE 93 ng/mL
cynomolgus monkey IgE [12] = target: T5, cynomolgus monkey IgE; assay: capture ELISA, antibody coated; Test 2, Cyno 1 serum
Procedure: as §2

[13] = target: T1, human IgE (full length human …); assay: serum free IgE depletion ELISA; DIN 0321 experiment 2, initial free IgE 265 ng/mL
[14] = target: T1, human IgE (full length human …); assay: serum free IgE depletion ELISA; DIN 0461, initial free IgE 80 ng/mL
cynomolgus monkey IgE [15] = target: T5, cynomolgus monkey IgE; assay: capture ELISA, antibody coated; Test 2, Cyno 2 serum
Procedure: as §2

[16] = target: T1, human IgE (full length human …); assay: serum free IgE depletion ELISA; DIN 0632 experiment 2, initial free IgE 289 ng/mL
[17] = target: T1, human IgE (full length human …); assay: serum free IgE depletion ELISA; DIN 0011 experiment 2, initial free IgE 326 ng/mL
cynomolgus monkey IgE [18] = target: T5, cynomolgus monkey IgE; assay: capture ELISA, antibody coated; Test 2, Cyno 5 serum
Procedure: as §2

cynomolgus monkey IgE [19] = target: T5, cynomolgus monkey IgE; assay: capture ELISA, antibody coated; Test 2, Cyno 3 serum
Procedure: as §2

cynomolgus monkey IgE [20] = target: T5, cynomolgus monkey IgE; assay: capture ELISA, antibody coated; Test 1, Cyno 7 serum
Procedure: as §2

cynomolgus monkey IgE [21] = target: T5, cynomolgus monkey IgE; assay: capture ELISA, antibody coated; Test 1, Cyno 2 serum
Procedure: as §2

cynomolgus monkey IgE [22] = target: T5, cynomolgus monkey IgE; assay: capture ELISA, antibody coated; Test 1, Cyno 4 serum
Procedure: as §2

cynomolgus monkey IgE [23] = target: T5, cynomolgus monkey IgE; assay: capture ELISA, antibody coated; Test 1, Cyno 6 serum
Procedure: as §2

cynomolgus monkey IgE [24] = target: T5, cynomolgus monkey IgE; assay: capture ELISA, antibody coated; Test 1, Cyno 5 serum
Procedure: as §2

cynomolgus monkey IgE [25] = target: T5, cynomolgus monkey IgE; assay: capture ELISA, antibody coated; Test 1, Cyno 1 serum
Procedure: as §2

cynomolgus monkey IgE [26] = target: T5, cynomolgus monkey IgE; assay: capture ELISA, antibody coated; Test 1, Cyno 3 serum
Procedure: as §2

T4 sequence (P01860 other isoform, or with tags, fused parts or gaps): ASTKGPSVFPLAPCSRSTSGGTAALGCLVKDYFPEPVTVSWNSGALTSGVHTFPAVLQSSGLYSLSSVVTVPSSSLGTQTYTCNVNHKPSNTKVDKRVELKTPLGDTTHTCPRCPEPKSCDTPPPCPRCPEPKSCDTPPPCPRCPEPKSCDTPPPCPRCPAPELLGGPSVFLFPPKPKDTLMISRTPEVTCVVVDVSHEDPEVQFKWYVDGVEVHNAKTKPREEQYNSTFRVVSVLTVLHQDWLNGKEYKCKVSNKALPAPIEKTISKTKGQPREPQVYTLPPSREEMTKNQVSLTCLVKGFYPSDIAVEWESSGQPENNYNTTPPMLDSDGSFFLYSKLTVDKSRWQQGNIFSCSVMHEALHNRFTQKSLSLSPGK
T1 sequence (P01854 whole entry): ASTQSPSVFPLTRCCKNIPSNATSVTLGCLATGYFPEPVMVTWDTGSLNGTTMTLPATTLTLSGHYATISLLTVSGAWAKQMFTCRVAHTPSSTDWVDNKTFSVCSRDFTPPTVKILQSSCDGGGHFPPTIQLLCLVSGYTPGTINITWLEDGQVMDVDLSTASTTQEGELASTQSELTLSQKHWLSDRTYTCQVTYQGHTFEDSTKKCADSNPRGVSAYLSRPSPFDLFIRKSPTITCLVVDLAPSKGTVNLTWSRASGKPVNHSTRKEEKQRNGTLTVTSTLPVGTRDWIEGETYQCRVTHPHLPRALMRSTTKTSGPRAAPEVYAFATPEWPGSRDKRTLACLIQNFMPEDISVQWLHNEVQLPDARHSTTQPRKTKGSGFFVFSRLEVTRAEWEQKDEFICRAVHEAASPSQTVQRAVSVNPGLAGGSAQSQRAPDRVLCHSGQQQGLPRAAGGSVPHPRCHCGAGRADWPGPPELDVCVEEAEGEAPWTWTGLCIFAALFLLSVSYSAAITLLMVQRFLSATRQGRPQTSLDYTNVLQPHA
T3 sequence (P01857 other isoform, or with tags, fused parts or gaps): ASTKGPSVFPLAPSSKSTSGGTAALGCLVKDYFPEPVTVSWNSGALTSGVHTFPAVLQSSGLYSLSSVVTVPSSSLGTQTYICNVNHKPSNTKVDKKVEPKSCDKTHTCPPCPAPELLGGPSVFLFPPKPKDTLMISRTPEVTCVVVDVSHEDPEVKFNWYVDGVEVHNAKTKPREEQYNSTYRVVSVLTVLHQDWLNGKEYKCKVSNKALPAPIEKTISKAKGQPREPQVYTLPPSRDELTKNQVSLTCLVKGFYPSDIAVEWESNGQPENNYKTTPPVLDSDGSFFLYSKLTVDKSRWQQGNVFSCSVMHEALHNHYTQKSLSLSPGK

Binder | A290 nm (human IgA) | A290 nm (human IgG1) | A290 nm (human IgG3) | IgE concentration detected (cynomolgus monkey IgE [6]) | IgE concentration detected (cynomolgus monkey IgE [8]) | IgE concentration detected (cynomolgus monkey IgE [9]) | IgE concentration detected (cynomolgus monkey IgE [10]) | IgE concentration detected (cynomolgus monkey IgE [12]) | IgE concentration detected (cynomolgus monkey IgE [15]) | IgE concentration detected (cynomolgus monkey IgE [18]) | IgE concentration detected (cynomolgus monkey IgE [19]) | IgE concentration detected (cynomolgus monkey IgE [20]) | IgE concentration detected (cynomolgus monkey IgE [21]) | IgE concentration detected (cynomolgus monkey IgE [22]) | IgE concentration detected (cynomolgus monkey IgE [23]) | IgE concentration detected (cynomolgus monkey IgE [24]) | IgE concentration detected (cynomolgus monkey IgE [25]) | IgE concentration detected (cynomolgus monkey IgE [26]) | also measured
5.948.1 Hc-H100Y (antibody, human IgG2, kappa, V domains shown, human IgG2 kappa; the heavy chain entry already holds H100Y; also called 5.948.1 H100Y; 5.948.1 (H100Y)) VH: QVQLVQSGAEVKKPGASVKVSCKASGYTFTSYDINWVRQATGQGLEWMGWMDPNSGNTGYAQKFQGRVTMTRNTSISTAYMELSSLRSEDTAVYYCARGYYDSDGYYSFSGMDVWGQGTTVTVSS VL: not shown | 0.05 absorbance | 0.06 absorbance | 0.06 absorbance | 25 ng/mL | 39 ng/mL | 0 ng/mL | 36 ng/mL | 170 ng/mL | 199 ng/mL | 420 ng/mL | 178 ng/mL | – | – | – | – | – | – | – | IC25ng/mL [1]: 0.55 µg/mL; IC25ng/mL [2]: 10.5 µg/mL; A290 nm [3]: 1.05 absorbance; IC25ng/mL [4]: 0.76 µg/mL; IC25ng/mL [5]: 1.33 µg/mL; IC25ng/mL [7]: 0.39 µg/mL; IC25ng/mL [11]: 0.34 µg/mL; IC25ng/mL [13]: 2.55 µg/mL; IC25ng/mL [14]: 0.34 µg/mL; IC25ng/mL [16]: 2.29 µg/mL; IC25ng/mL [17]: 2.96 µg/mL
recombinant 5.396.1 (antibody, human IgG2, kappa, V domains shown, human IgG2 kappa, expressed in 293 Freestyle cells; also called 5.396.1 (recombinant)) VH: QVQLQQWGAGLLKPSETLSLTCAVYGGSFSGYYWSWIRQPPGKGLEWIGEIHHSGSTNYNPSLKSRVTISVDTSKNQFSLKLSSVTAADTAVYYCARDNWNDSFYYYYGMDVWGQGTTVTVSS VL: DIQMTQSPSSLSASVGDRVTITCRASQGISNHLAWFQQKPGKAPKSLIYAASSLQSGVPSKFSGSGSGTDFTLTISSLQPEDFATYYCQQYNRHPFTFGPGTKVDIKR | 0.04 absorbance | 0.07 absorbance | 0.05 absorbance | – | – | – | – | – | – | – | – | 0 ng/mL | 0 ng/mL | 0 ng/mL | 3 ng/mL | 37 ng/mL | 30 ng/mL | – | –
5.396.1 Hc-S103N Lc-K61R (antibody, human IgG2, kappa, V domains shown, human IgG2 kappa; the entries already hold the substitutions S103N (Hc) and K61R (Lc); also called 5.396.1 (S103N/K61R); 5.396.1 N/R) VH: QVQLQQWGAGLLKPSETLSLTCAVYGGSFSGYYWSWIRQPPGKGLEWIGEIHHSGSTNYNPSLKSRVTISVDTSKNQFSLKLSSVTAADTAVYYCARDNWNDNFYYYYGMDVWGQGTTVTVSS VL: DIQMTQSPSSLSASVGDRVTITCRASQGISNHLAWFQQKPGKAPKSLIYAASSLQSGVPSRFSGSGSGTDFTLTISSLQPEDFATYYCQQYNRHPFTFGPGTKVDIKR | 0.04 absorbance | 0.08 absorbance | 0.05 absorbance | 0 ng/mL | 0 ng/mL | 0 ng/mL | 0 ng/mL | 57 ng/mL | 39 ng/mL | 102 ng/mL | 53 ng/mL | 0 ng/mL | 0 ng/mL | 0 ng/mL | 0 ng/mL | 57 ng/mL | 41 ng/mL | 39 ng/mL | –
recombinant 6.605.1 (antibody, human IgG2, kappa, V domains shown, human IgG2 kappa; also called 6.605.1 (recombinant)) VH: QVHLVQSGAEVKMPGASVKVSCKASGYTFTSYGISWVRQAPGQGLEWMGWISAYNGNTNYAQKLQGRITMTTDTSTSTAYMDLRSLRSDDTAVYYCARDGDYYDPFDYWGQGTLVTVSS VL: DIQMTQSPSSLSASVGDRVTITCRTSQSISNWLNWYQQKPGKAPKLLIYGASTLKSGVPSRFSGSESGTDFTLTISSLQPEDFATYYCQQSYSTPPTFGQGTKVEIKR | 0.04 absorbance | 0.07 absorbance | 0.05 absorbance | – | – | – | – | – | – | – | – | 0 ng/mL | 91 ng/mL | 0 ng/mL | 0 ng/mL | 140 ng/mL | 120 ng/mL | 107 ng/mL | –
6.605.1 Hc-H3Q,M13K,D82E Lc-T25A,T53S (antibody, human IgG2, kappa, V domains shown, human IgG2 kappa; the entries already hold the substitutions; also called 6.605.1 (H3Q,M13K,D82E-T25A,T53S); 6.605.1 QKE/AS) VH: QVQLVQSGAEVKKPGASVKVSCKASGYTFTSYGISWVRQAPGQGLEWMGWISAYNGNTNYAQKLQGRITMTTDTSTSTAYMELRSLRSDDTAVYYCARDGDYYDPFDYWGQGTLVTVSS VL: DIQMTQSPSSLSASVGDRVTITCRASQSISNWLNWYQQKPGKAPKLLIYGASSLKSGVPSRFSGSESGTDFTLTISSLQPEDFATYYCQQSYSTPPTFGQGTKVEIKR | 0.04 absorbance | 0.07 absorbance | 0.04 absorbance | – | – | – | – | – | – | – | – | 0 ng/mL | 103 ng/mL | 0 ng/mL | – | 173 ng/mL | 133 ng/mL | 122 ng/mL | –
